Test results from publication PMC2173217 (The Journal of Cell Biology, 2002).
Where two headings read alike, the source gives them in different places.

B1: Sec23/24p (complex, S. cerevisiae)
chain 1: MDFETNEDINGVRFTWNVFPSTRSDANSNVVPVGCLYTPLKEYDELNVAPYNPVVCSGPHCKSILNPYCVIDPRNSSWSCPICNSRNHLPPQYTNLSQENMPLELQSTTIEYITNKPVTVPPIFFFVVDLTSETENLDSLKESIITSLSLLPPNALIGLITYGNVVQLHDLSSETIDRCNVFRGDREYQLEALTEMLTGQKPTGPGGAASHLPNAMNKVTPFSLNRFFLPLEQVEFKLNQLLENLSPDQWSVPAGHRPLRATGSALNIASLLLQGCYKNIPARIILFASGPGTVAPGLIVNSELKDPLRSHHDIDSDHAQHYKKACKFYNQIAQRVAANGHTVDIFAGCYDQIGMSEMKQLTDSTGGVLLLTDAFSTAIFKQSYLRLFAKDEEGYLKMAFNGNMAVKTSKDLKVQGLIGHASAVKKTDANNISESEIGIGATSTWKMASLSPYHSYAIFFEIANTAANSNPMMSAPGSADRPHLAYTQFITTYQHSSGTNRIRVTTVANQLLPFGTPAIAASFDQEAAAVLMARIAVHKAETDDGADVIRWLDRTLIKLCQKYADYNKDDPQSFRLAPNFSLYPQFTYYLRRSQFLSVFNNSPDETAFYRHIFTREDTTNSLIMIQPTLTSFSMEDDPQPVLLDSISVKPNTILLLDTFFFILIYHGEQIAQWRKAGYQDDPQYADFKALLEEPKLEAAELLVDRFPLPRFIDTEAGGSQARFLLSKLNPSDNYQDMARGGSTIVLTDDVSLQNFMTHLQQVAVSGQA
chain 2: MSHHKKRVYPQAQLQYGQNATPLQQPAQFMPPQDPAAAGMSYGQMGMPPQGAVPSMGQQQFLTPAQEQLHQQIDQATTSMNDMHLHNVPLVDPNAYMQPQVPVQMGTPLQQQQQPMAAPAYGQPSAAMGQNMRPMNQLYPIDLLTELPPPITDLTLPPPPLVIPPERMLVPSELSNASPDYIRSTLNAVPKNSSLLKKSKLPFGLVIRPYQHLYDDIDPPPLNEDGLIVRCRRCRSYMNPFVTFIEQGRRWRCNFCRLANDVPMQMDQSDPNDPKSRYDRNEIKCAVMEYMAPKEYTLRQPPPATYCFLIDVSQSSIKSGLLATTINTLLQNLDSIPNHDERTRISILCVDNAIHYFKIPLDSENNEESADQINMMDIADLEEPFLPRPNSMVVSLKACRQNIETLLTKIPQIFQSNLITNFALGPALKSAYHLIGGVGGKIIVVSGTLPNLGIGKLQRRNESGVVNTSKETAQLLSCQDSFYKNFTIDCSKVQITVDLFLASEDYMDVASLSNLSRFTAGQTHFYPGFSGKNPNDIVKFSTEFAKHISMDFCMETVMRARGSTGLRMSRFYGHFFNRSSDLCAFSTMPRDQSYLFEVNVDESIMADYCYVQVAVLLSLNNSQRRIRIITLAMPTTESLAEVYASADQLAIASFYNSKAVEKALNSSLDDARVLINKSVQDILATYKKEIVVSNTAGGAPLRLCANLRMFPLLMHSLTKHMAFRSGIVPSDHRASALNNLESLPLKYLIKNIYPDVYSLHDMADEAGLPVQTEDGEATGTIVLPQPINATSSLFERYGLYLIDNGNELFLWMGGDAVPALVFDVFGTQDIFDIPIGKQEIPVVENSEFNQRVRNIINQLRNHDDVITYQSLYIVRGASLSEPVNHASAREVATLRLWASSTLVEDKILNNESYREFLQIMKARISK
B2: Sec13/31p (complex, S. cerevisiae)
chain 1: MVVIANAHNELIHDAVLDYYGKRLATCSSDKTIKIFEVEGETHKLIDTLTGHEGPVWRVDWAHPKFGTILASCSYDGKVLIWKEENGRWSQIAVHAVHSASVNSVQWAPHEYGPLLLVASSDGKVSVVEFKENGTTSPIIIDAHAIGVNSASWAPATIEEDGEHNGTKESRKFVTGGADNLVKIWKYNSDAQTYVLESTLEGHSDWVRDVAWSPTVLLRSYLASVSQDRTCIIWTQDNEQGPWKKTLLKEEKFPDVLWRASWSLSGNVLALSGGDNKVTLWKENLEGKWEPAGEVHQ
chain 2: MVKLAEFSRTATFAWSHDKIPLLVSGTVSGTVDANFSTDSSLELWSLLAADSEKPIASLQVDSKFNDLDWSHNNKIIAGALDNGSLELYSTNEANNAINSMARFSNHSSSVKTVKFNAKQDNVLASGGNNGEIFIWDMNKCTESPSNYTPLTPGQSMSSVDEVISLAWNQSLAHVFASAGSSNFASIWDLKAKKEVIHLSYTSPNSGIKQQLSVVEWHPKNSTRVATATGSDNDPSILIWDLRNANTPLQTLNQGHQKGILSLDWCHQDEHLLLSSGRDNTVLLWNPESAEQLSQFPARGNWCFKTKFAPEAPDLFACASFDNKIEVQTLQNLTNTLDEQETETKQQESETDFWNNVSREESKEKPTVFHLQAPTWYGEPSPAAHWAFGGKLVQITPDGKGVSITNPKISGLESNTTLSEALKTKDFKPLINQRLVKVIDDVNEEDWNLLEKLSMDGTEEFLKEALAFDNDESDAQDDANNEKEDDGEEFFQQIETNFQPEGDFSLSGNIEQTISKNLVSGNIKSAVKNSLENDLLMEAMVIALDSNNERLKESVKNAYFAKYGSKSSLSRILYSISKREVDDLVENLDVSQWKFISKAIQNLYPNDIAQRNEMLIKLGDRLKENGHRQDSLTLYLAAGSLDKVASIWLSEFPDLEDKLKKDNKTIYEAHSECLTEFIERFTVFSNFINGSSTINNEQLIAKFLEFINLTTSTGNFELATEFLNSLPSDNEEVKTEKARVLIASGKSLPAQNPATATTSKAKYTNAKTNKNVPVLPTPGMPSTTSIPSMQAPFYGMTPGASANALPPKPYVPATTTSAPVHTEGKYAPPSQPSMASPFVNKTNSSTRLNSFAPPPNPYATATVPATNVSTTSIPQNTFAPIQPGMPIMGDYNAQSSSIPSQPPINAVSGQTPHLNRKANDGWNDLPLKVKEKPSRAKAVSVAPPNILSTPTPLNGIPANAASTMPPPPLSRAPSSVSMVSPPPLHKNSRVPSLVATSESPRASISNPYAPPQSSQQFPIGTISTANQTSNTAQVASSNPYAPPPQQRVATPLSGGVPPAPLPKASNPYAPTATTQPNGSSYPPTGPYTNNHTMTSPPPVFNKPPTGPPPISMKKRSNKLASIEQNPSQGATYPPTLSSSASPLQPSQPPTLASQVNTSAENVSHEIPADQQPIVDFLKEELARVTPLTPKEYSKQLKDCDKRLKILFYHLEKQDLLTQPTIDCLHDLVALMKEKKYKEAMVIHANIATNHAQEGGNWLTGVKRLIGIAEATLN
B3: Sar1p (enzyme)
chain: not shown

Assays:
Assay in all cases: liposome flotation
MBP–Sec16p [1] = biological target: T1, MBP–Sec16p (S. cerevisiae, UniProt P48415 1-2195)
Sec23/24p = biological target: B1
MBP–Sec16p [2] = biological target: T1, MBP–Sec16p; remark: listed apart in the source

T1 sequence (P48415 whole entry): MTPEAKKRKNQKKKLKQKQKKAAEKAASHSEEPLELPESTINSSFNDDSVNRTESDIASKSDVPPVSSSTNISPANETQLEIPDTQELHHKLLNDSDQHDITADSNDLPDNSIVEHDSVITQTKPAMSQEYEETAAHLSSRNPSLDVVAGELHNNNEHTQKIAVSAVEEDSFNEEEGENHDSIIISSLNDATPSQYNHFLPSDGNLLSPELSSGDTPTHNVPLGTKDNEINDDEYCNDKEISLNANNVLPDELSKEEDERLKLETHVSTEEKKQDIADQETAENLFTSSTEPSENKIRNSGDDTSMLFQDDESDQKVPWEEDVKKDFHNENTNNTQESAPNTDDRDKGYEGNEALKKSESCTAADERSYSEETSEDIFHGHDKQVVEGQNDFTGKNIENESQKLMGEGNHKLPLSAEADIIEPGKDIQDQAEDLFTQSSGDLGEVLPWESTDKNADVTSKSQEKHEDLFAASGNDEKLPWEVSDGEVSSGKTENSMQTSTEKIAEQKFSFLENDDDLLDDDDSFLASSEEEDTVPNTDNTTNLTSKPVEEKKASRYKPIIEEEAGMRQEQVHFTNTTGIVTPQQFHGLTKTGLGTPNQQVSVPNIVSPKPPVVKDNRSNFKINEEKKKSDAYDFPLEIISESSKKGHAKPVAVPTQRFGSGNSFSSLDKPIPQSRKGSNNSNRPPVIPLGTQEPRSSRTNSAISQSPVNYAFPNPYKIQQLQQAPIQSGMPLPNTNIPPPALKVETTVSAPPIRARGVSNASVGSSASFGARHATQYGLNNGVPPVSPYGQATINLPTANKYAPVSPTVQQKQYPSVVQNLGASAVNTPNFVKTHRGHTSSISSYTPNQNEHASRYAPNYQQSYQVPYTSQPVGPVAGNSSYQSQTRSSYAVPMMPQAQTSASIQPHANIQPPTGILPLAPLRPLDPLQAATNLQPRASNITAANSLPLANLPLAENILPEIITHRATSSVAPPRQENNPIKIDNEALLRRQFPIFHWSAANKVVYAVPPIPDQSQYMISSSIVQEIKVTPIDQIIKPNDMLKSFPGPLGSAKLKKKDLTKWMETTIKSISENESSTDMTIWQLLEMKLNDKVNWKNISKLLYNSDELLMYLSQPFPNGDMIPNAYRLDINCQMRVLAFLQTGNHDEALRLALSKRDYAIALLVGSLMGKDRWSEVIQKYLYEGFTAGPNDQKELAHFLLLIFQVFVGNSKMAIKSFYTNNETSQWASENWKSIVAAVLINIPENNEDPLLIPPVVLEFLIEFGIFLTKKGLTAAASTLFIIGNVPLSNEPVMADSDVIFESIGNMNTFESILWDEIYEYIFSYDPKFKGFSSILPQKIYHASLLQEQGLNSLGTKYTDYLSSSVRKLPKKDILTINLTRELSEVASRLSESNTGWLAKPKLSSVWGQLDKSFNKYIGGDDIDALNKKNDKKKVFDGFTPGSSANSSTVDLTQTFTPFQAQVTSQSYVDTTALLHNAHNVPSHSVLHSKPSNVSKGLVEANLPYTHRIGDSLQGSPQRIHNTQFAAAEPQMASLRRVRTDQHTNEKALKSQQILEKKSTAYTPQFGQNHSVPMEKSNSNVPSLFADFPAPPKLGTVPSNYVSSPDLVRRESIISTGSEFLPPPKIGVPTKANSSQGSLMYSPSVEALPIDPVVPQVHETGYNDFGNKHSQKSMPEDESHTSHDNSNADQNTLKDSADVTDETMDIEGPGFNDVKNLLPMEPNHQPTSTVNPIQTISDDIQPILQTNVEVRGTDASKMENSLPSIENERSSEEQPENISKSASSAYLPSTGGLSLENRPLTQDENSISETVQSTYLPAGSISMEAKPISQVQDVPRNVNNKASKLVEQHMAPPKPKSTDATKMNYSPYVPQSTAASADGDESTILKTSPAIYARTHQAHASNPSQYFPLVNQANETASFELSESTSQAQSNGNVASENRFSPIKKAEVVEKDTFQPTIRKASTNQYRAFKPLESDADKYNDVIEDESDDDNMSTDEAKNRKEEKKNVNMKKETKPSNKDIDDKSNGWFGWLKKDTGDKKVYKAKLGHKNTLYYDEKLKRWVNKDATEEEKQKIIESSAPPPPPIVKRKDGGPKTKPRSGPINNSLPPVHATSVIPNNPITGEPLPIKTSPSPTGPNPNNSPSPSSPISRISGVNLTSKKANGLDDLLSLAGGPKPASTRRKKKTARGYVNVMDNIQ

B1: binds (MBP–Sec16p [1]).

B2: binds (Sec23/24p).

B3: binds (MBP–Sec16p [2]).
